Reference: the nanobody polyreactivity screen of Harvey et al. (2022)

Test: yeast display, Sf9 membrane polyspecificity reagent, FACS + sequencing; frameworks hold sequencing errors
In short: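 Polyreactivity labels are assigned by the sorting gate from which each nanobody was recovered. The gates were low and high (top ~1%), set on anti-HA fluorescence for expression and streptavidin fluorescence for reagent binding. Before sorting, galactose-induced (36–48 hours) yeast display cells were stained for 1 hour at 4 °C with 10% biotinylated, detergent-solubilized Sf9 membrane reagent.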

Sequence | polyreactivity (PSR sort gate)
QVQLVESGGGLVQAGGSLRLSCAASGRIFPSYTMGWYRQAPGKERELVAGITKSGSSTYYADSVKGRFTISRDNAKNTVYLQMNSLKPEDTAVYYCAAVYGNPSYRYGYWGQGTQVTVSS | high polyreactivity
QVQLVESGGGLVQAGGSLRLSCAASGRIFPTNAMGWYRQAPGKERELVASIDSGGSTKYADSVKGRFTISRDNAKNTVYLLMNSLKPEDTAVYYRALQVLNYDYWGQGTQVTVSS | low polyreactivity
QVQLVESGGGLVQAGGSLRLSCAASGRIFPTYAMGWYRQAPGKERELVAGITSGGRTNYADSVKGRFTISRDNAKNTVYLQMNSLKPEDTAVYYCATVSQQSRSLGIDRIYYWGQGTQVTVSS | high polyreactivity
QVQLVESGGGLVQAGGSLRLSCAASGRIFPVNAMGCYRQAPGKEREFVSAIRGTGTSTYYADSVKGRFTISRDNAKNTVYLQMNSLKPEDTAVYYCAARGYVQYQGQNVNTFDYWGQGTQVTVSS | low polyreactivity
QVQLVESGGGLVQAGGSLRLSCAASGRIFPVNAMGWYRQAPGKERELVATISSGDITNYADSVKGRFTISRDNAKNTVYLQMNSLKPEDTAVYYCAADYTWRAWTYYGIKYNYWGQGTQVTVSS | low polyreactivity
QVQLVESGGGLVQAGGSLRLSCAASGRIFPVYAMVSYRQAPGKERELVAAISKRDGSTSYADSVKGRFTISRDNAKNTVYLQMHSLKPEDTAVYYCNVLGYGSSYDYWGQGTQVTVSS | low polyreactivity
QVQLVESGGGLVQAGGSLRLSCAASGRIFPWYAMGWYRQAPGKERELVAAITSGGGSTSYADSVKGRFTISRDNAKNTVYLQMNRLKPEDTAVYYCAARRWISSHSYKYGYWGQGTQVTVSS | high polyreactivity
QVQLVESGGGLVQAGGSLRLSCAASGRIFPWYAMGWYRQAPGKERELVATISSSGRTNYADSVKGRFTISRDNAKNTVYLQLNSLQPEDTAVYFCAATLYHYWYADFDYWGQGTQVTVSS | high polyreactivity
QVQLVESGGGLVQAGGSLRLSCAASGRIFPYNAMGWYRQAAGKERELVAAISLSGDSTYYADSVKGRFTISRDNAKNTVFLHMNSLKPEDTAVYYCNAPSYWYYPVLGSFLTFEYWGQGTQVTVSS | low polyreactivity
QVQLVESGGGLVQAGGSLRLSCAASGRIFPYNAMGWYRQAPGKERELVAAISFGGGRTYYADSVKGRFTISRDNAKNTVYLQMNRLKPEDTAVYYCNTASPQDIVFRVFYGGDYWGQGTQVTVSS | low polyreactivity
QVQLVESGGGLVQAGGSLRLSCAASGRIFPYYAMGWYRQAPGKEREFVAAITKRGGSTSYADSVKGRFTISRDNAKNTVYLQMNSLKPEDTAVYYCAARRGSGIVTYYGGDYWGQGTQVTVSS | low polyreactivity
QVQLVESGGGLVQAGGSLRLSCAASGRIFPYYAMGWYRQAPGKERELVASIRYSAVNTYYADSVKGRFTISRDNAKNTVYVQMNSLKPEDTAVYYCWYTQNTLGNYWGQGTQVTVSS | low polyreactivity
QVQLVESGGGLVQAGGSLRLSCAASGRIFPYYAMGWYRQAPGKERELVATISTAGSTNYADSVKGRFTISRDNAKNTVYLQMNSMKPEDTAVYYCATRNTWYHRGYDFWGLGTQVTVSS | low polyreactivity
QVQLVESGGGLVQAGGSLRLSCAASGRIFPYYAMGWYRQAPGKVRELVASIRYSAGNTYYADSVKGRFTISRDNAKNTVYLQMNSLKPEDTAVYYCWYTQNTLGNYWGQGTQVTVSS | low polyreactivity
QVQLVESGGGLVQAGGSLRLSCAASGRIFPYYTMGWYRPAPGKERELVAAISRRGSSTYYADSVKGRFTISRDNAKNTVYLQMNSLKPEDTAVYFCAADRGGYTRTGEYDYWGQGTQVTVSS | high polyreactivity
QVQLVESGGGLVQAGGSLRLSCAASGRIFQDYAMGWYRQATGKERELVAAITWSGGRTYYADSVKGRFTISRDNAKNTVYLQMNSLKPEDTAVYYCNRLTQSRLYYGPREYYYWGQGTQVTVSS | high polyreactivity
QVQLVESGGGLVQAGGSLRLSCAASGRIFQHNTMGWYRQAPGKERELVAAITRGGRTNYADSVKGRFTISRDNAKNTVYLQMNSLKPEDTAVYYCAARYVERHTDYYYWGQGTQVTVSS | low polyreactivity
QVQLVESGGGLVQAGGSLRLSCAASGRIFQLYTMGWYIQAPGKERELVAAITSGTSTSYADSVKGRFTISRDNAKNTVYLQMNSLKPEDTAVYYCNKGSVSYSSVFVPYESDYWGQGTQVTVSS | low polyreactivity
QVQLVESGGGLVQAGGSLRLSCAASGRIFQPNAMGWYRQAPGKEREFVAAISSSGGYTFYADSVKGRFTISRDNAKNTVYLQMNSLKPEDTAVYYCAKRYGYTEYFYWGQGSQVTVSS | high polyreactivity
QVQLVESGGGLVQAGGSLRLSCAASGRIFQQYALGWYRQAPGKEREWVAVITYRAGRTHYADSVKGRFTISRDNAKNTVYLQMNSLKPEDTAVYYCAAGRYYAVWQSISGFDSWGQGTQVTVSS | low polyreactivity

Sequence | polyreactivity (PSR sort gate)
QVQLVESGGGLVQAGGSLRLSCAASGRIFQRNTMGWYRQAPGKERELVAAITWNGGSTYYADSVKGRFTISRDNAKNTVFLQMNSMKPEDTAVDYCATAYRYSVHKALGFNYWGQGTQVTVSS | high polyreactivity
QVQLVESGGGLVQAGGSLRLSCAASGRIFQRYAMGWYRPAPGKERELVAAISSRGGRTFYADSVKGRFTISRDNAMYSVYLQMNSLKPEDSAAYYCAATATVGSVTFDYWGQGTQVSVSS | high polyreactivity
QVQLVESGGGLVQAGGSLRLSCAASGRIFQRYAMGWYRQAPGKERELVAGITSSGGSTYYADSVKGRFTISRDNAKNTVYLQMNSLKPEDTAVYYCNAGGELRYYGYRAGGTTRSYDYWGQGTQVTVSS | low polyreactivity
QVQLVESGGGLVQAGGSLRLSCAASGRIFQTNVMGWYRQAPGKEKELVAAISYRGGTTYYEDSVKARFTISRDNAQNTVYLPMYSLYPEDTAVYYCAALHYRIRRTGMDYWGQGTQVTVSS | low polyreactivity
QVQLVESGGGLVQAGGSLRLSCAASGRIFQTYAMGWYRQAPGKERDLVASITSGVDTYYADSVKGRFTISRDNAKNTVYLQMNSLKPEDNAVYYCAAEPYRTVTAYRYSLYWYNYWGQGTQVTVSS | high polyreactivity
QVQLVESGGGLVQAGGSLRLSCAASGRIFQWYAMGWYRQAPGKERELVAAIRNGGTTNYADSVKGRFTISRDNAKNTVYLQMNSLKPEDTAVYYCNADKYRTWVFQPRYPGGYWGQGTQVTVSS | low polyreactivity
QVQLVESGGGLVQAGGSLRLSCAASGRIFQYNAMGWYRQAPGKEREFVAAIRRGGGSTYYADSVKGRFTISRDNAKNTVYLQMNSLKPEDTAVYYCAARRKRVSFYPEYDYWGQGTQVTVSS | low polyreactivity
QVQLVESGGGLVQAGGSLRLSCAASGRIFQYNAMGWYRQATGKERELVAAITWSSGSTYYADSVKGRFTISRDNAKNTVYLQMNSLKPEDTAVYYCNTVRVLYYDRQFLFRGSRFGYWGQGTQVTVSS | high polyreactivity
QVQLVESGGGLVQAGGSLRLSCAASGRIFQYNVIGWYRQARWKERELVAAISSGGNTYYADSVKGRFTISRDNAKNTVYLQMNSLKPEDTSFYYCAADHYVPWPNYDYDYWGQGTQETVSS | low polyreactivity
QVQLVESGGGLVQAGGSLRLSCAASGRIFQYYAMGRYGQAPGKERELVARISSRGGSTYYADSVKGRFTISRDNAKNTVYLQMNSLKPEDTAVYYCNTRWYSSYYQPSYNYWGQGTQVTVSS | high polyreactivity
QVQLVESGGGLVQAGGSLRLSCAASGRIFQYYAMGWYRQAPGKERELVAAINSSGGRTYYADSVKGRFTISRDTAKNTVYLQMNSLTPEDTAVNSCNAVLSTRGMDYWGQGTQVTVSS | high polyreactivity
QVQLVESGGGLVQAGGSLRLSCAASGRIFRAYTMGWYRQAPGKERELVAAISGSGTSTYYADSVKGRFTISRDNAKNTVYLQMNSLKPEDTAVYYCAAPSLSGYGYEYWGQGTQVTVSS | high polyreactivity
QVQLVESGGGLVQAGGSLRLSCAASGRIFRDYDMGWYRQAPGKERELVASISTRGGSTYADSVKGRFTISRDNAKNTVYLQMNSLKPEDTAVYYCAADSSGFSRYDYWGQGSQVTVSS | low polyreactivity
QVQLVESGGGLVQAGGSLRLSCAASGRIFRFNAMGWYRQAPGKERELVAAITGSGGTTFYADSVKGRFTISRDNAKNTVYLQMNSLKPEDTAVYYCNTLGNWRPVYNQPRYEYWGQGTQVTVSS | high polyreactivity
QVQLVESGGGLVQAGGSLRLSCAASGRIFRFYAMGWYRQAPGKERELVAAISSRGGSTYDADSVKGRFTISRDNAKNTVYLQMNSLKPEDTAVYYCNAYGSTSQMDYWGQGTQVTVSS | high polyreactivity
QVQLVESGGGLVQAGGSLRLSCAASGRIFRFYAMGWYRQAPGKERELVAAISWRGGRTYYADSVKGRFTISRDNAKNTVYVQMNSLKPEDTAVYYCNADKYETSGWKYVSWGQGTQVTVSS | low polyreactivity
QVQLVESGGGLVQAGGSLRLSCAASGRIFRFYAMGWYRQAPGKERELVAAITYGGGTTYYADSVKGRFTISRDNAKNTVYLQMNSLKPEDTAVYYCAADHRQGYDHEYDYWGQGTQVTVSS | low polyreactivity
QVQLVESGGGLVQAGGSLRLSCAASGRIFRFYAMGWYRQAPGKERELVAGITYSGGSTFYADSVKGRFTISRDNAKNTVYLQMNSLKPEDTAVYYCAAVYVPYYWLGRSRGLDYWGQGTQVTVSS | high polyreactivity
QVQLVESGGGLVQAGGSLRLSCAASGRIFRFYAMGWYRQAPRKERELVAAITSGGSTYYADSVKGRFTISRDNAKNTVYLQMNSLKPEDTAVYYCANYYWGQGTQVTVSS | low polyreactivity
QVQLVESGGGLVQAGGSLRLSCAASGRIFRGNAMGWSRQAPGKERELVAGISVRGGRTYYADSVKGRFTISRDNAKNTVYLQMNSLKPEDTAVYYCAAVFWDDYGKYYYWGQGTQVTVSS | high polyreactivity
